Data taken from the nanobody polyreactivity screen of Harvey et al. (2022).

Assay: yeast display, Sf9 membrane polyspecificity reagent, FACS + sequencing; frameworks hold sequencing errors
In short: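 Using colony PCR, genes from sorted yeast display clones were amplified, then sequenced on MiSeq at 2 × 250 and filtered by CDR length. The clones had been stained with 10% biotinylated, detergent-solubilized Sf9 membrane reagent for 1 hour at 4 °C and sorted by FACS into low and high (top ~1%) gates on anti-HA and streptavidin fluorescence. Polyreactivity labels come from the gate of origin.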

Row | Sequence | polyreactivity (PSR sort gate)
1 | QGQLVESGGGLVQAGGSLRLSCAASGRTFYRYAMGWYRQAPGQERELVASITRGTSTNYADSVKGRFTISRDNAKNTVYLQMNSLKPEDTAVYYCAAGASGLFWDYDYWGQGTQVTVSS | high polyreactivity
2 | QGQLVESGGGLVQAGGSLRLSCAASGRTVGEYTMGWSRPAPGKERELVAAISSAGRTNYADSVKGRFTISRDNAKNTVYLQMHRLKPEDTAVYYCAADWTDDVPGYDYWGQGTKVTVSS | low polyreactivity
3 | QGQLVESGGGLVQAGGSLRLSCAASGSIFEGYVMGWYRQAPGKERELFATISFSGGSTYYADSVKGRFTISRDNAKNTGYLQMNSLKPVDTAVYFCADSVPYKFYSVVSVRYEYWGQGTQVTVSS | low polyreactivity
4 | QGQLVESGGGLVQAGGSLRLSCAASGSIFVLNAMGWYRQAPGKERELVAAISGGSTNYADSVKGRFTISRDNAKNTVYLQMNSLKPEDTAVYYCAARARRRYYYWGQGTQVTVSS | high polyreactivity
5 | QGQLVESGGGLVQAGGSLRLSCAASGSSFRGNALGGYRQAPGKERELVASISYSGGSTYYADSVKGRFTISRDSAKNTVYLQMNSLKPEDTAVYYCAADDSVAYPYSGYQYYRHIYDDWGQGTQVTVSS | low polyreactivity
6 | QGQLVESGGGLVQAGGSLRLSCAASGSTFNSYAMGWYRQAPGKERELVAAISRGGASTYYADSVKGSFTISRDNAKNTVYLQMNSLKPEDTAVYYCATVYYHRFDYWGQGTQVTVSS | high polyreactivity
7 | QGQLVESGGGLVQAGGSLRLSCAASGSTFTRYGMGWYRQAPGKERELVAAITTSGSSTYYADSVKGRFTISRDNAKNTVYLQMNSLKPEDTAVYYCAADWSSWGFDYWGQGTQVTVSS | low polyreactivity
8 | QGQLVESGGGLVQAGGSLRLSCAASGSTFYLNAMGWYRQAPGKERELVATITRRGGRTYYADSVKGRFTISRDNAKNTVYLKMNSLKPEDTAVYYCNKGGISPGDALYGYWGQGTQVTVSS | low polyreactivity
9 | QGQLVESGGGLVQAGGSLRLSCAASGSTFYTNAMGWYRQAPGKERELVAAISGSGGSTYYADSVKGRFTISRDNAKNTVYVQMNSRKPEDTAVYYCAARSRYYYTRFDYWGQGTQVTVSS | low polyreactivity
10 | QGQLVESGGGLVQAGGSLRLSCAASGSTYPNNTMGWYREAPGKEWEFVAAITGDGGTTYYADSVKGRFTISRDNAKNTVYLQMNSLKPEDSAVYYCAVPYPAEGYGVDYWGQGTQVTVSS | low polyreactivity
11 | QGQLVESGGGLVQAGGSLRLTCAASGSTFDQNVMGWYRQAPGKERELVDTINFSGDSTYYADSVKGRFTISRDNAKNTVYLQRNSLKPEDTAVYYCAVDWGEYIDTSVKRDISSYWGQGTQVTVSS | low polyreactivity
12 | QGQLVESGGGLVQAGGSVRLSCAASRITLGSNAMGWDRQAPGKERELVAAITSGSSTYYADSVKGRFTISRDNAKNTVNLQMNSLKPEDTAVYYCAADPTSYSYEYNYWGQGTQVTVSS | low polyreactivity
13 | QGQLVESGGGLVQAGGTLRLSCAASGSTFAVYVMGGYRQAPGTERELVAAISTSGARTYYADSVKGRFTISRDNAKNTVYLQMNSLKPEDTAVYYCAARSNALFRFDYWGQGTQVTVSS | high polyreactivity
14 | QGQLVESGGGLVQAGVTLRLSCAASGITFPWYAMGWYRQAPGKERELVASITSGGSTNYADSVKGRFTISRDNSKNTVYLQMNSLKPEDTAVSYCARDWYSPVYWAAGYDAWGSGYDYWGQGTQVTVSS | high polyreactivity
15 | QGQLVESWGGLVQAGGSLRLSCAASGSTLRRYAMGWYRQAPGKERELVAAISRRGGSTYYADSVKGRFSISRDFAKNTVYLEMNSLKPEDTAVYYCAAKGFSTRQFDYWGQGTQVTVSS | high polyreactivity
16 | QIQLVESGGGLVQAGGSLRLSCAASGSIFSKYAMGWYRQAPGKERELVAAISAGGGSTYYADSVKGRFTISRDNAKNTVYLQMNSLKPEDTAVYYCAARSRFRFDYWVQGTQVTVSS | high polyreactivity
17 | QIQLVESVGGLVQAGGSLRLSCDASGSTLKYTAMGWYRQAPRKESELVAAISTSGGNTYYADSVKGPFTISRDNAKNTVYLQMNSLKPEDTAVYYCAKVLGYYYYDYDSWGQGTQVTVSS | low polyreactivity
18 | QLHLVESGGGLVQAGGSLRLSCAASGRSFGLNALGRSRQAHGKERELVAVISFGDGGTYYADSVKGRFTISLDNAKNTVYLQMNSLKPEDTAVYYCATDYQSTSVWGGHFVINPYDYWGQGTKVTVSS | low polyreactivity
19 | QLHLVESWGGLVQAGGSLRLSCAASGILFQNNDMGSYRQAPGKERELVAAITGSGGSTYYADSVKGRFTISRDNATNTVYLQMNSLKPEDTAVYYCNAVWEYYGKSDYWGQGTQVTVSS | low polyreactivity
20 | QLQHVDSGGGLVQAGGSLRLSCATSGIIFYDYDIGWSRQAPEKESELVARISRNGGRTYYADSVKGRFTISRDNAKNTVYLQMNSLNPEDTAVYYCNGVYFVTTSPGSDYWGQGTQVTVSS | high polyreactivity
21 | QLQHVESGAVLVQAAGSLRLICAASGLIFPYNAMGWSRQAPGKERELVAAIDTRASSTYYADSVKGRFTISRDNAKNSVYLQMNSLKPEDTAVYYCATRRWGRRKGVGYWGQGTQVTVSS | high polyreactivity
22 | QLQHVESGRGLVQAGGSLRLSCADSGRTYGGYDMGWYRQATVKERELVAAISYSGGSTYYADSVKGRFTISRDNAKNTVYLEMNSLKPEDTAVFYCAADGYDAYYWGQGTQVTVSS | low polyreactivity

Row | Sequence | polyreactivity (PSR sort gate)
23 | QLQHVETGGGLVQAGGSLRLSCAASGSTFRSYVMGWYRQAPGKERELVAAISWITGSTYYADSVKGRFTISRDNAKNTVYLQMNSLKPEDTAVYDCAARYRTQSSLYYWGQGTQVTVSS | high polyreactivity
24 | QLQIVESGGGLVQAGGSLRLTCAASGSTFPLYAMGWYSQAPGKEREFVAAIRWIGGSTYYADSVKGRFTISRDNAKNSVYLLMNSLKPEDTAVYYGAADYVVSAFDYWGQGTQVTVSS | low polyreactivity
25 | QLQLQESGGGLVQAGGSLRLSCAASGPITRRSTMGWYRQAPRKVRELVTAITRGTNTNYADSVKGRFTISRDNAKNTEYLQMNSLKPEDTAVYYCAAYGVLKPSRGDAVFLRYLGQGTQVTVSS | low polyreactivity
26 | QLQLQESGGGLVQAGGSLRLSCAASGSNSRYYDMGWYRQAAGKEREFVAGISGGAITYYEDSVKGRFTISRDNANITVYVQMNSLKPEDTAVYYCAADTGDYQYHSYWGQGTQVTVSS | low polyreactivity
27 | QLQLVDSGGGLVQAGGSLRLSCAASGFTLDYYAMGWYRQAPGKESELVAAISWSGGRTYYADSVKGRFTISRDNAKNTVYLQMNSLKPEDTAVYYCNASPYGRKYGILADGDYWGQGTQVTVSS | high polyreactivity
28 | QLQLVESAAGLFQAGVSHRLSCDASGSTLSQNSMGGYRQAPGKEREFVADISGSGDSTYYADSVKGRFTISRDNAKNTVYLQMNSLKAEDTAVYYCATPSPHVGLKWEYDYWGQGTQVTVSS | low polyreactivity
29 | QLQLVESGAGLVQAGGSLRLSCAASGSTFTVYGMAWYRQAPGKERELVAAITYSGGSTYYADSVKGRFTISRDNAKHTVYLTMNSLKPEDTGVYYCAAAGSQYYRRWYDYWGQGTQVTVSS | low polyreactivity
30 | QLQLVESGGGLVLAGGSLRLSCAASGYLFQRTAKGCYRQATGKVRELVSTISRGGARTSYAYSVKGRFTISSDNANNTVYLQMNSLKPEDTAVYYCAKSYRKAGGMWSYGYWGQGTQVTVSS | high polyreactivity
31 | QLQLVESGGGLVQAGGSLRISCAASGSTFFLNAMGWYRQAPGKERELVAAITSGSGNTYYADSVKGRFTISRDNAKNTVYLQMNSLKPADSAVYYCNVTRFVYRPYGLDRDDYWGQGTQGTVSS | low polyreactivity
32 | QLQLVESGGGLVQAGGSLRLSCAASASTFYRYAMCCYIQAPGKERELVAGISSSGGSTYYADSVKGRFTISRDNAKNTVYLQMNSLKPEDTAVYYCAAVGQWGYGYWGQGTQVTVSS | high polyreactivity
33 | QLQLVESGGGLVQAGGSLRLSCAASGFIFADYAMGWYRQAPGKERELVAAISSNGGSTYYADSVKGRFTISRDNAKNTVYLQMNSLKPEDTAVYYCAVRHRYYKDYEFDYWGQGTQVTVSS | high polyreactivity
34 | QLQLVESGGGLVQAGGSLRLSCAASGFTFGVYAMGWYRQAPGKERELVAAISTTVGSTYYADSVKGRYTISRDNAKNTVYLQMNSLKPEDTAVYYCAAEYTGYISYYIYEDWGQGTQVTVSS | low polyreactivity
35 | QLQLVESGGGLVQAGGSLRLSCAASGFTFSGYAMGWYRQAPGKERELVAAITKRGGSTYYADSVKGRFTISRDNAKNTVYLQMNSLKPEDTAVYYCAARGYISRYDARANAVQGNYWGQGTQVTVSS | high polyreactivity
36 | QLQLVESGGGLVQAGGSLRLSCAASGFTFYVNAMGWYRQDPGKETEFVAAIDWSDTSTYYADSVKGRFTISRDNAKNTVYLQMISLKPVDTAVYYCAADFSPYDYDYWGQGTQVTVSS | high polyreactivity
37 | QLQLVESGGGLVQAGGSLRLSCAASGGIFPNYVMGWYRKAPGKERELVAGITSGGNTNYADSVKGRFTISRDNAKNTVYLQMNSLKPEDTAVYYCAADGYRYSVYLIRNPMDYWGQGTQVTVSS | low polyreactivity
38 | QLQLVESGGGLVQAGGSLRLSCAASGGTFQPNAMGWYIQAPGKESELVAAISWSDGSTYYADSVKGRFTISRDYAKNTVYLQMNSLKPEDTAVDYCAADFTYYDSPYRDYNYESWGQGTQVTVSS | low polyreactivity
39 | QLQLVESGGGLVQAGGSLRLSCAASGIIFRYNTKGSYIQAPGKESELVAAIRTTGGSTYYADSVKGRFTISRDNAKNTVYLQMNSLKPEDPAVYYCAAVGFGRQGQEDYWGHGTQVTVSS | low polyreactivity
40 | QLQLVESGGGLVQAGGSLRLSCAASGITFQWYAMGWYRQAPGKERELVARISSGGSTNYADSVKGRFTISCDNAKYTVYLQMNSVKPEDTAVYYCNARYFWFDYWGQGTQVTVSS | high polyreactivity
41 | QLQLVESGGGLVQAGGSLRLSCAASGLIQANYAMGWYRQAPGKERELVAAISSSGGSTYSADSVKGRFSISRDNAKNTVYLQMKSLKPEDTAVYYCAAYPLYRRRWTGDYWGQGTQVTVSS | high polyreactivity
42 | QLQLVESGGGLVQAGGSLRLSCAASGNTYFWYAMGWYRQAPGKERELVAAITSGGSTTYADSVKGRFTISRHNGMNTVYLQMNSLKPEDTAVYYCAQYTRDIFAVTFYEGEDYWGQGSQVTVSS | low polyreactivity
43 | QLQLVESGGGLVQAGGSLRLSCAASGRIFHSYTMGCYTQAPGKHRELVSAITWSCGSTYYADSVKGRLTISRDHAKNTVYFQMNSLKAEDTSVFYCNAKRRVFRLSVTSAFDYWGQGTQVTVSS | high polyreactivity
